B1: CPEB3 Ribozyme (parent)
chain: GGGGGCCACAGCAGAAGCGUUCACGUCGCGGCCCCUGUCAGAUUCUGGUGAAUCUGCGAAUUCUGCUGU

In this data set the parent is B1. Briefly: self-cleavage, relative activity (ratio to wild type); higher = more cleavage; co-transcriptional.
Regarding C34U A52G, the self-cleavage is 1.01. As for C32U U69A, the self-cleavage turned out to be 1.03. For C34A U69C, the self-cleavage was 0.992.

Regarding C35G C66G, the self-cleavage stood at 0.437.

As for C34A U67C, the self-cleavage is 0.938. Under C34A U67G stands 0.903; under C34A U67A, 0.883; under C34A A40C, 0.291.

On to C34G U67A, for which the self-cleavage came out at 0.847. Consider C35G U61G, for which the self-cleavage amounted to 0.296.

Turning to C35G U61C, the self-cleavage is 0.257. With C33G A52U, the self-cleavage is 0.444. On to C34U G50U, for which the self-cleavage came to 0.987. Regarding C33G G58A, the self-cleavage came out at 0.545. The figure for C34G U61G is 0.311; for C34G U61A it is 0.458. In the case of C33G G41C, the self-cleavage stood at 0.27. As for C33G G41A, the self-cleavage was determined as 0.323. The figure for C34G A52C is 0.618. Consider C34G A52G, for which the self-cleavage worked out at 0.771. Regarding C34A G56A, the self-cleavage was found to be 0.562. C33U C66A: the self-cleavage was 0.884. In the case of C33U C66U, the self-cleavage was 0.98.

For C35G U38C, the self-cleavage turned out to be 0.286. Consider C32U U64A, for which the self-cleavage was found to be 0.992. For the variant C32U U64C, the self-cleavage amounted to 0.899. As to C33A G41C, the self-cleavage stood at 0.343. Take C34U C63U: the self-cleavage turned out to be 1. Under C34U C63A stands 0.869; under C34U U62C, 0.896; under C35U C66U, 0.905. In the case of C35U C66G, the self-cleavage was found to be 0.813. On to C35U C54U, for which the self-cleavage turned out to be 0.929.

C35U C54G: the self-cleavage was determined as 0.72. With C35A U38G, the self-cleavage came out at 0.291. The figure for C32U U44C is 0.938.

In the case of C32U U44G, the self-cleavage came to 0.941. In the case of C34U U64A, the self-cleavage is 0.974. In the case of C33A U38A, the self-cleavage was 0.804.

With C33A U38C, the self-cleavage turned out to be 0.72. The figure for C33U C35A is 0.233; for C34G A60G it is 0.407; for C34G A60C it is 0.331. C34G A60U: the self-cleavage was 0.39. Take C35G G65A: the self-cleavage is 0.357.

C35G G65C: the self-cleavage was 0.374. For C33U A60C, the self-cleavage is 0.319. Under C35A C57G stands 0.192. As for C35A C57A, the self-cleavage stood at 0.218. Under C34A G58C stands 0.556. On to C34A G58U, for which the self-cleavage was 0.881.

On to C34G U43A, for which the self-cleavage stood at 0.551. On to C33G G56A, for which the self-cleavage is 0.496.

On to C33G G56U, for which the self-cleavage was 0.458.

Take C34U C66G: the self-cleavage worked out at 0.95.

Turning to C34U A59U, the self-cleavage is 0.778. For C33G C63A, the self-cleavage stood at 0.323.

With C34A G65C, the self-cleavage was determined as 0.485. The figure for C35A U67A is 0.239. Under C35A U67G stands 0.288.

With C32U U61A, the self-cleavage is 0.893.

Regarding C33G U55C, the self-cleavage was found to be 0.282. With C35A U69G, the self-cleavage worked out at 0.356. C34G G65A: the self-cleavage was found to be 0.58. Turning to C35A A52U, the self-cleavage was determined as 0.274.

As to C33G G37C, the self-cleavage was found to be 0.16. The figure for C33G U53C is 0.407. As for C34A C66A, the self-cleavage turned out to be 0.634. As to C33G U69C, the self-cleavage was found to be 0.972.

Turning to C35A G58A, the self-cleavage was 0.196. Turning to C35A G58C, the self-cleavage was 0.25. For C34G G37C, the self-cleavage was 0.213.

In the case of C34U C57G, the self-cleavage worked out at 0.261.

Consider C34A U64G, for which the self-cleavage was 0.629. Under C33G U44A stands 0.29; under C35A U44G, 0.282. For C35A U44A, the self-cleavage is 0.285. Turning to C33G U36C, the self-cleavage came out at 0.531. Turning to C33A U67C, the self-cleavage was determined as 0.928. The figure for C34U U55C is 0.823. For the variant C33U U43C, the self-cleavage was determined as 0.939.

Turning to C33A A42G, the self-cleavage was found to be 0.685. Regarding C33A A42C, the self-cleavage was found to be 0.405. The figure for C33A A42U is 0.499; for C34A C39A it is 0.346; for C35A G41C it is 0.237.

As for C34G G56C, the self-cleavage turned out to be 0.261. The figure for C35U A40U is 0.717. Under C35U A40C stands 0.46; under C35G U49A, 0.444; under C35G U49G, 0.373. C34G A59C: the self-cleavage was determined as 0.291. With C34U C45A, the self-cleavage is 0.946. The figure for C35G G58A is 0.243. Under C33A A59G stands 0.738; under C33A A59U, 0.475; under C35A C54G, 0.199. For C35G C39U, the self-cleavage was 0.263.

Take C35G C39G: the self-cleavage was found to be 0.343.

Turning to C33A A52C, the self-cleavage stood at 0.582.

For C33A A52U, the self-cleavage worked out at 0.454. The figure for C33A A52G is 0.785; for C35G G68U it is 0.687.

Consider C35A G68A, for which the self-cleavage came out at 0.358. Take C32U U62C: the self-cleavage worked out at 0.955. The figure for C32U U62A is 0.979; for C32U U49G it is 1.01. Turning to C32U U49C, the self-cleavage is 1. With C34U G65U, the self-cleavage was found to be 0.824. Consider C33U C54G, for which the self-cleavage amounted to 0.828. Take C33U C54A: the self-cleavage was found to be 0.868. On to C33G C66G, for which the self-cleavage was 0.625. With C35G G50C, the self-cleavage stood at 0.401. C34A A59C: the self-cleavage came out at 0.302. The figure for C33A C39G is 0.436. In the case of C33A C39A, the self-cleavage turned out to be 0.286. Under C33A C39U stands 0.367. C33U U44C: the self-cleavage is 0.938. Under C33U U44A stands 1.01.

With C35G U46A, the self-cleavage stood at 0.618. The figure for C35G U46G is 0.335.

Take C34G U69G: the self-cleavage amounted to 0.926. On to C33A G50U, for which the self-cleavage came out at 0.893.

For the variant C33U G65C, the self-cleavage was determined as 0.669.

C33U G65A: the self-cleavage worked out at 0.919.

Regarding C35A C45U, the self-cleavage came out at 0.261. Take C35A C45A: the self-cleavage stood at 0.22. Under C35A C45G stands 0.179; under C35A U46C, 0.275. Take C34G U55A: the self-cleavage was 0.386. Under C34G U55C stands 0.327; under C34G U55G, 0.475; under C34G C39G, 0.455.

Regarding C34G C39U, the self-cleavage worked out at 0.439. As to C33U C34G, the self-cleavage stood at 0.258. Consider C34A C54A, for which the self-cleavage stood at 0.408. For C34A C54G, the self-cleavage is 0.38.

For C33A G37C, the self-cleavage was 0.265.

As for C34A A42G, the self-cleavage worked out at 0.765.

For the variant C34A A42U, the self-cleavage was determined as 0.491. Turning to C35G A42C, the self-cleavage stood at 0.308. The figure for C32U U67G is 1.04; for C32U U67C it is 0.959.

Turning to C33A G65A, the self-cleavage was 0.786. As to C33A G65U, the self-cleavage turned out to be 0.451. Regarding C33U C39U, the self-cleavage came to 0.932. Consider C33U C39G, for which the self-cleavage stood at 0.918.

Take C34G G58C: the self-cleavage is 0.654. In the case of C34G G58U, the self-cleavage amounted to 0.772. The figure for C34G G58A is 0.463; for C33U U38A it is 0.913.

Turning to C34A C35A, the self-cleavage came to 0.275. Consider C34A C45G, for which the self-cleavage came to 0.427.

Consider C34A C45A, for which the self-cleavage came out at 0.528. As for C33A G68C, the self-cleavage was 0.967. Consider C33G U43C, for which the self-cleavage turned out to be 0.391.

As to C33G U43A, the self-cleavage stood at 0.299. Take C34U U61C: the self-cleavage was found to be 0.888. Under C35G C63G stands 0.361; under C35G C63U, 0.47; under C35G U44G, 0.373. The figure for C35G G41C is 0.295; for C35G G41A it is 0.294. The figure for C35G U62C is 0.242; for C33U C57A it is 0.323.

Regarding C33U C57G, the self-cleavage is 0.247. In the case of C35G U64A, the self-cleavage amounted to 0.402.

The record behind these values is the RNAGym collection of RNA variant scans (doi:10.7554/elife.80360).
